Literature values in PMC5075240.

Biological target: calmodulin (UniProt P0DP23)

For “TRPV1 C-terminal fragment 767-801 (from UniProt O35433)”, the Kd is listed as 50 nM.
